Measurements published in doi:10.1101/2021.11.23.469668 (bioRxiv, 2021).

Legend:
Assay in all cases: SEC
[1] = target: Atlas GC GPL binding pocket mutant R86A (Ancylostoma ceylanicum (endogenous retrovirus Atlas virus))
[2] = target: Atlas GC fusion loop mutant F136A/F137A (Ancylostoma ceylanicum (endogenous retrovirus Atlas virus))
SEC = target: the molecule itself

Question: For “Atlas GC GPL binding pocket mutant R86A (domain or fragment)”, which stoichiometry N [1] is on record?
Answer: The stoichiometry N was 3.

Question: For “Atlas GC fusion loop mutant F136A/F137A (domain or fragment)”, which stoichiometry N [2] is on record?
Answer: Its stoichiometry N is 3.

B1: Atlas virus GC ectodomain fragment (polyprotein residues 2330-2772) (domain or fragment)
chain: CSEVISVTSTEEVCTIQENKETCTFNHATTITLQPLQQQTCLTLNDPEKRPMGMLTVKPDGIKFRCNKKIEFFTRDHQIVSESVHRCHRAGSCHSDECHHVKDTDALPEFSSEANSRPGYTSCSSSCGCITCDGCFFCEPSCLFHRLYAIPTTPTIYSIFYCPSWELEVDAEISLQREDETTTSTIRLLPGRTSTWNNIRFSLIGTIVPQLPILSSAFVTNGRQTSIVKPAYAGQLQSNSVGQLQCPNLEAAKQFECHFSRNLCTCTNALHKVSCTCYDGSVEDHMEALPLPQTSKNFLVFEKDRNIYAKTHVGSALQLHIVAQDLKITTVKHTSHCQVEASDLSGCYSCTSGASLTLSCKSDNGEVLANMKCNEQTHVIRCTESGFINNILLMFDTSEVAADCTAACPGGIVNFTIKGLLAFVNERIISQSYSATDVERNIK
modifications: N-linked glycan at Asn414 (GC numbering)
Question: How did the “stoichiometry N” value (SEC) turn out when B1 was run?
Answer: Its value is 3.
